A word on the Kd: it is the concentration at which binding is half-saturated. Higher therefore signals a looser complex.

Where a chain is given by its changes, count along the chain named. Names and notes keep the numbering of the source.

Three molecules from US20180155451A1 (published 2018) can be followed below.

The target of test [1] is T1, FcγRIIb (human, UniProt P31994 43-217).
T1 construct: extracellular domain; for crystallography expressed with Kifunesine and trimmed with Endo F1; also called FcgRIIb; FcgR2b; not shown: His tag attached to the C terminus
T1 sequence (looked up): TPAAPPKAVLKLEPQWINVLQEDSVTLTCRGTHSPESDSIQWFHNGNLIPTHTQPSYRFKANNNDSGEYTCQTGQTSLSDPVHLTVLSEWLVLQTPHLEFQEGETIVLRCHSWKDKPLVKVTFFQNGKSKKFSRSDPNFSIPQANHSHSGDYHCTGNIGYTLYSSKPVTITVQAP
Briefly: SPR (Biacore), relative binding; compared with GpH7-A5/GpH7-B12/GpL16-k0. The protocol: (§1) Analysis of interaction between objective antibody and the FcγR was carried out using Biacore T100 (GE Healthcare). HBS-EP+ (GE Healthcare) was used as the running buffer, and the measurement temperature was set to 25° C. Chips produced by immobilizing the antigen peptide by the amine coupling method to a Series S Sencor Chip CM5 (GE Healthcare), or alternatively, chips produced by allowing preliminarily biotinylated antigen peptides to interact with and immobilize onto a Series S Sensor Chip SA (certified) (GE Healthcare) were used. Antibodies of interest were captured onto an antigen peptide-immobilized chip, and allowed to interact to each FcγR diluted with running buffer. To regenerate and repeatedly use the chip, the antibodies captured on the chip were washed off by reacting 10 mM glycine-HCl, pH 1.5.
A general note: SPR reads the build-up and loss of mass on a sensor chip optically.

Test [2] deals with T1, FcγRIIb. Briefly: SPR (Biacore), relative binding; compared with GpH7-A48/GpH7-B3/GpL16-k0. The protocol: as §1
Test [3] addresses T2, FcgRIIb (human, UniProt P31994 43-217).
T2 construct: extracellular domain; also called FcγRIIb; CD32B; not shown: C-terminal His tag
T2 sequence (looked up): T1 sequence (looked up)
Kind of test: SPR (Biacore); KD of H240-Kn120/H240-Hl068/L73-k0 divided by KD of the sample. The protocol:
(§2) The variants described above were assessed for their binding to FcgR according to the method described in Reference Example 8.
(§3) Analysis of interaction between obj ective antibody and the FcγR was carried out using Biacore T100 (GE Healthcare), Biacore T200, Biacore A100, and Biacore 4000. HBS-EP+ (GE Healthcare) was used as the running buffer, and the measurement temperature was set to 25° C. Chips produced by immobilizing the antigen peptide by the amine coupling method to a Series S sensor Chip CM5 (GE Healthcare), chips produced by allowing preliminarily biotinylated antigen peptides to interact with and immobilize onto a Series S Sensor Chip SA (certified) (GE Healthcare), chips produced by immobilizing Protein L (ACTIGEN, BioVision) to Series S Sencor Chip CM5 (GE Healthcare), or chips produced by immobilizing Protein A/G (Thermo Scientific) to Series S Sencor Chip CM5 (GE Healthcare) were used. Antibodies of interest were captured onto these chips, and allowed to interact to each FcγR diluted with running buffer. To regenerate and repeatedly use the chip, the antibodies captured onto the chip were washed off by reacting 10 mM glycine-HCl, pH 1.5.

Test [4] has as its target T3, FcgRIIIaF (human, UniProt P08637 17-208).
T3 construct: extracellular domain; F158 allotype; also called FcγRIIIa F; not shown: C-terminal His tag
Described as above. The protocol: as §2, §3

Test [5] deals with T4, FcgRIIaR (human, UniProt P12318 34-217).
T4 construct: extracellular domain; R131 allotype; also called FcγRIIa R; FcgRIIa type R; not shown: C-terminal His tag
T4 sequence (looked up): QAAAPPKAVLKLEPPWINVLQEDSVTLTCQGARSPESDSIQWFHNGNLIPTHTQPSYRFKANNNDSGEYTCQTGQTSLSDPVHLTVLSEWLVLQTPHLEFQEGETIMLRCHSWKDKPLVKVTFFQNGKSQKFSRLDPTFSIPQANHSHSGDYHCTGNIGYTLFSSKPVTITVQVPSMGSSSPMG
The test is described as above. The protocol:
as §2, §3

Test [6] deals with T5, FcgRIIIaV (human, UniProt P08637 17-208).
T5 construct: extracellular domain; V158 allotype; also called FcγRIIIa V; not shown: C-terminal His tag
T5 sequence (P08637 17-208 F176V limits assumed): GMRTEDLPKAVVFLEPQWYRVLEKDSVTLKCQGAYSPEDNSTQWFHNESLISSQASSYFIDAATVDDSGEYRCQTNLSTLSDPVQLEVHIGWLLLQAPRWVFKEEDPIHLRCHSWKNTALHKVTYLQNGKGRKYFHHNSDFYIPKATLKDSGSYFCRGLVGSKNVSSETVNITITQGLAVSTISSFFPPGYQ
The test is described as above. The protocol: as §2, §3

For test [7], the target named is T6, FcgRIIaH (human, UniProt P12318 34-217).
T6 construct: extracellular domain; H131 allotype; also called FcγRIIa H; FcgRIIa type H; not shown: C-terminal His tag
T6 sequence (looked up): T4 sequence (looked up) with R134H
Described as above. Here is the method:
as §2, §3

Test [8] addresses T2, FcgRIIb. Briefly: SPR (Biacore), antibody captured on chip, FcgR as analyte. Here is the method: as §2, §3
Test [9] addresses T3, FcgRIIIaF. The description is as above. Here is the method: as §2, §3
Test [10] has as its target T4, FcgRIIaR. The test is described as above. Here is the method: as §2, §3
The target of test [11] is T5, FcgRIIIaV. Described as above. The protocol: as §2, §3
Test [12] has as its target T6, FcgRIIaH. The test is described as above. Here is the method: as §2, §3
A further test deals with T7, FcgRIa (human, UniProt P12314 16-292).
T7 construct: extracellular domain; also called FcγRIa; FcγRI; not shown: C-terminal His tag
T7 sequence (P12314 16-292): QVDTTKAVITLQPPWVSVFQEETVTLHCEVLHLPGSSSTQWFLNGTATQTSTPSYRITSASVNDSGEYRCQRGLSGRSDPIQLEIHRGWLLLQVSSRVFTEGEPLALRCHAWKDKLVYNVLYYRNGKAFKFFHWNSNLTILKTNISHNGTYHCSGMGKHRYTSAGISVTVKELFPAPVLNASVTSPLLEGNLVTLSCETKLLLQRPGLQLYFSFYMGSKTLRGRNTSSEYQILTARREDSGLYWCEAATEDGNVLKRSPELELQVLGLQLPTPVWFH
Briefly: SPR (Biacore 4000), antibody captured on chip, FcgR as analyte; kd below the limit 5e-5 /s. The protocol:
as §2, §3

T3 sequence (P08637 17-208): as the sequence (P08637 17-208 F176V limits assumed) above, with V160F counted along it

B1: GpH7-A5/GpH7-B41/GpL16-k0 (antibody, human IgG1, kappa)
heavy 1: not shown
heavy 2: QVQLVQSGAEVKKPGASVTVSCKASGYTFTDYEMHWIRQPPGEGLEWIGAIDPKTGDTAYSESFQDRVTLTADKSTSTAYMELSSLTSEDTAVYYCTRFYSYTYWGQGTLVTVSSASTKGPSVFPLAPSSKSTSGGTAALGCLVKDYFPEPVTVSWNSGALTSGVHTFPAVLQSSGLYSLSSVVTVPSSSLGTQTYICNVNHKPSNTKVDKKVEPKSCDKTHTCPPCPAPEDLGGPSVFLFPPKPKDTLMISRTPEVTCVVVDVSHEDPEVKFNWYVDGVEVHNAKTKPREEQYNSTYRVVSVLTVLHQDWLNGKEYKCKVSNKALRAPIEKTISKAKGQPREPQVYTLPPSRDELTKNQVSLTCLVKGFYPSDIAVEWESNGQPENNYKTTPPVLDSDGSFFLYSKLTVDKSRWQQGNVFSCSVMHEALHNHYTQESLSLSP
light: DIVMTQSPLSLPVTPGEPASISCQASESLVHSNRNTYLHWYLQKPGQSPQLLIYKVSNRFSGVPDRFSGSGSGTDFTLKISRVEAEDVGVYYCSQNTHVPPTFGQGTKVEIERTVAAPSVFIFPPSDEQLKSGTASVVCLLNNFYPREAKVQWKVDNALQSGNSQESVTEQDSKDSTYSLSSTLTLSKADYEKHKVYACEVTHQGLSSPVTKSFNRGEC
notes: L234D and P329R in the same H chain
On to B1, for which the binding result with FcγRIIb [1] is given as “binds”.

B2: GpH7-A45/GpH7-B3/GpL16-k0 (antibody, human IgG1, kappa)
heavy 1: B1 heavy 2 with D232L, G235A, D354K, H433R, E437K
heavy 2: not shown
light: B1 light
notes: G237A and P329R in the same H chain
With B2, in the test with FcγRIIb [2], the binding result was “binds”.

B3: H240-Kn120/H240-Hl073/L73-k0 (antibody, human IgG1, kappa)
heavy 1: QDQLVQSGAEVKKPGASVKVSCKASGFNIKDTYIQWVRQAPGQGLEWMGRIDPLRKQTKYREKFEGRVTITADTSTNTAYMELSSLRSEDTAVYYCVRSGREFDYWGQGTLVTVSSASTKGPSVFPLAPSSKSTSGGTAALGCLVKDYFPEPVTVSWNSGALTSGVHTFPAVLQSSGLYSLSSVVTVPSSSLGTQTYICNVNHKPSNTKVDKKVEPKSCDKTHTCPPCPAPEYYWGPMVFLFPPKPKDTLMISRTPEVTCVVVDVSDEDPEVKFNWYVDGVEVHNAKTKPREEQYNATYRVVSVLTVLHQDWLNGKEYKCKVSNKDLPAPIEKTISKAKGQPREPQVCTLPPSRDELTKNQVSLWCLVKGFYPSDIAVEWESNGQPENNYKTTPPVLDSDGSFFLYSKLTVDKSRWQQGNVFSCSVMHEALHNHYTQKSLSLSP
heavy 2: QDQLVQSGAEVKKPGASVKVSCKASGFNIKDTYIQWVRQAPGQGLEWMGRIDPLRKQTKYREKFEGRVTITADTSTNTAYMELSSLRSEDTAVYYCVRSGREFDYWGQGTLVTVSSASTKGPSVFPLAPSSKSTSGGTAALGCLVKDYFPEPVTVSWNSGALTSGVHTFPAVLQSSGLYSLSSVVTVPSSSLGTQTYICNVNHKPSNTKVDKKVEPKSCDKTHTCPPCPAPELLSGPSVFLFPPKPKDTLMISRTPEVTCVVVDVSHEEPEVKFNWYVDGVEVHNAKTKPREEQYNSTYRVVSVLTVLHQDWLNGKEYKCKVSNDALPKPIEETISKAKGQPREPQVYTLPPSRCELTKNQVSLSCAVKGFYPSDIAVEWESNGQPENNYKTTPPVLDSDGSFFLVSKLTVDKSRWQQGNVFSCSVMHEALHNHYTQKSLSLSP
light: DIQMTQSPSSLSASVGDRVTITCRASQDIHKYIAWYQQKPGQAPRLLIQYTSTLQPGVPSRFSGSGSGTDYTFTISSLQPEDIATYYCLQYEQLRTFGGGTKVEIKRTVAAPSVFIFPPSDEQLKSGTASVVCLLNNFYPREAKVQWKVDNALQSGNSQESVTEQDSKDSTYSLSSTLTLSKADYEKHKVYACEVTHQGLSSPVTKSFNRGEC
notes: Heterodimerized anti-epiregulin antibody; G236S in the Hl068 chain; also called H240-Kn120/H240-HI073/L73-k0
For the molecule B3, the “Relative KD” value was found to be 0.7 in the test with FcgRIIb [3]; 0.3 with FcgRIIIaF [4]; 1.3 with FcgRIIaR [5]; 0.2 in the test with FcgRIIIaV [6]; 2 with FcgRIIaH [7]. Further, the Kd with FcgRIIb [8] is 210 nM; with FcgRIIIaF [9] it was 8.2 nM; with FcgRIIaR [10] it was 15 nM; in the test with FcgRIIIaV [11] it was 1.8 nM; in the test with FcgRIIaH [12] it was 21 nM; with FcgRIa it was less than 0.028 nM.
